Data on four molecules can be found in US20240352132A1 (JIANGSU HENGRUI PHARMACEUTICALS, published 2024).

In experiment [1] the target is T1, HGFR protein extracellular domain with the His tag (human, UniProt P08581 25-932).
T1 construct: also called HGFR-His; human HGFR
The experiment is described as follows: flow cytometry on HGFR CHO-S stably transfected cells, R-PE goat anti-human (H+L) detection. The text has this:
(§1) The binding activity of antigen-binding molecules specifically binding to HGFR and EGFR to cells was detected using a flow cytometer. EGFR CHO-S stably transfected cell strain, HGFR CHO-S stably transfected cell strain, and H1975-HGF or MKN-45 tumor cell strain at 1×10⁶ cells/mL were blocked with 1% BSA PBS buffer, followed by the addition of diluted antibody samples at different concentrations (C25 was a negative control, which was an IgGI antibody protein of irrelevant targets, the same applied hereinafter), and the mixtures were incubated for 1 h. After the mixtures were washed twice, R-PE-goat anti-human (H+L) antibody (Invitrogen, CAT #H10104) was added, and the mixtures were incubated for 0.5 h. After the plate was washed twice, fluorescence signals were read using a flow cytometer.

Experiment [2] addresses T1, HGFR protein extracellular domain with …. Nature of the experiment: SPR Biacore T200. As for the experimental part:
(§2) The affinity of the test molecule for human EGFR (SEQ ID NO: 42) or human HGFR protein (SEQ ID NO: 43) was determined by Biacore T200 (GE) as follows:
(§3) The antibody molecules were affinity-captured on a Protein A biosensor chip of which antigens flowed through the surface for 180 s, and then the antibody molecules were dissociated for 600 s. The reaction signals were detected in real time using a Biacore T200 instrument to obtain association and dissociation curves. After dissociation was completed for each cycle, the biosensor chip was washed with 10 mM Gly-HCl (pH 1.5) for regeneration. Data were fitted using a 1:1 model, and affinity values of the test molecules were obtained. In this example, the positive control MCLA was a bispecific antibody specifically binding to HGFR and EGFR (see PB8532 in WO2019031965 for specific sequences).
For orientation: In SPR one partner is held on a chip, and binding of the other changes the refractive index at the surface.

Experiment [3] shares this target. The experiment is described as follows: SPR Biacore T200, antibody captured on Protein A, antigen in flow, 1:1 fit. As for the experimental part:
as §2, §3

Experiment [4] has as its target T2, human EGFR protein extracellular domain with the His tag (human, UniProt P00533 25-645).
T2 construct: also called EGFR-His
The experiment is described as follows: competition ELISA, blocks EGF-mFc on captured EGFR-His. The protocol: 1 μg/mL rabbit anti-His antibody (GenScript, A01857) was coated overnight at 4° C. and then blocked. After the plate was washed, 2 μg/mL EGFR-His (SEQ ID NO: 42) was added, and the plate was incubated for 1 h. […] After the plate was washed, a tetramethylbenzidine solution was added for color development. Finally, a stop solution was added. OD450 values were measured on a microplate reader.
(ELISA stands for enzyme-linked immunosorbent assay.)

The target in experiment [5] is T1, HGFR protein extracellular domain with …. The experiment is described as follows: competition ELISA, blocks bio-HGF-His on coated HGFR-His. The protocol:
The ability of the antibodies to block HGF/HGFR was tested by ELISA. 5 μg/mL HGFR-His (for the sequence, see SEQ ID NO: 43) was coated overnight at 4° C. and then blocked. […] After the plate was washed, horseradish peroxidase-streptavidin (Jackson, 016-030-084) was added, and the plate was incubated for 1 h. After the plate was washed, a tetramethylbenzidine solution was added for color development. Finally, a stop solution was added. OD450 values were measured on a microplate reader.

The target in experiment [6] is T2, human EGFR protein extracellular domain …. The experiment is described as follows: SPR Biacore T200, antibody captured on Protein A, antigen in flow, 1:1 fit. The protocol: as §2, §3
Experiment [7] shares this target. Nature of the experiment: flow cytometry on EGFR CHO-S stably transfected cells, R-PE goat anti-human (H+L) detection.
Source text: as §1
Background: In flow cytometry, cells or beads pass a laser one at a time.

B1: Omab (antibody, V domains shown)
VH: EVQLVESGGGLVQPGGSLRLSCAASGYTFTSYWLHWVRQAPGKGLEWVGMIDPSNSDTRFNPNFKDRFTISADTSKNTAYLQMNSLRAEDTAVYYCATYRSYVTPLDYWGQGTLVTVSS
VL: DIQMTQSPSSLSASVGDRVTITCKSSQSLLYTSSQKNYLAWYQQKPGKAPKLLIYWASTRESGVPSRFSGSGSGTDFTLTISSLQPEDFATYYCQQYYAYPWTFGQGTKVEIK
notes: anti-HGFR antibody (WO2013003680A1); also called onartuzumab
For the molecule B1, the 50% effective concentration (EC50 (read off the curve)) in experiment [1] was about 0.4 nM.

B2: Ab10.1 (antibody, V domains shown)
VH: QVQLVESGGGVVQPGRSLRLSCAASGFSLSDYGVHWVRQAPGKGLEWLAVIWSGGSTNYADAFVSRLTISKDNSKNTVYLQMNSLRAEDTAVYYCARNHDNPYIYAMDYWGQGTTVTVSS
VL: DIVLTQSPDSLAVSLGERATINCRADKSVSTSTYNYLHWYQQKPGQPPKLLIYRGSFLATGVPDRFSGSGSGTDFTLTISSLQAEDVAVYYCQHSRDLPPTFGQGTKLEIK
notes: CDR mutant of Ab10
With B2, in experiment [2], the “fold affinity against Ab10” value is at least 4 fold. Moreover, in experiment [3], the dissociation constant (Kd) stood at 7.56 nM, the off-rate (koff) stood at 0.000309 s⁻¹ and the on-rate (kon) is 40800 M⁻¹ s⁻¹. Further, the “EC50 (read off the curve)” value in experiment [1] is about 0.5 nM.

B3: EM1 (bispecific antibody, human IgG1, kappa)
heavy 1: not shown
light 1: DIQLTQSPSSLSASVGDRVTITCRASQDISSALVWYQQKPGKAPKLLIYDASSLESGVPSRFSGSESGTDFTLTISSLQPEDFATYYCQQFNSYPLTFGGGTKVEIKGGGGSGGGGDIVLTQSPDSLAVSLGERATINCRADKSVSTSTYNYLHWYQQKPGQPPKLLIYRGSFLATGVPDRFSGSGSGTDFTLTISSLQAEDVAVYYCQHSRDLPPTFGQGTKLEIKRTVAAPSVFIFPPSDEQLKSGTASVVCLLNNFYPREAKVQWKVDNALQSGNSQESVTEQDSKDSTYSLSSTLTLSKADYEKHKVYACEVTHQGLSSPVTKSFNRGEC
heavy 2: EVQLVESGGGLVQPGGSLRLSCAASGYTFTSYWLHWVRQAPGKGLEWVGMIDPSNSDTRFNPNFKDRFTISADTSKNTAYLQMNSLRAEDTAVYYCATYRSYVTPLDYWGQGTLVTVSSGGGGSGIPPKIECLPIDISIDEGKVLTVASAFTGEPTPEVTWSTGGRKIHSQEQGRFHIENTDDSTTLTIKDVQKQDGGLYTLTLRNEFGSDSATVNIHIRSIDKTHTCPPCPAPELLGGPSVFLFPPKPKDTLMISRTPEVTCVVVDVSHEDPEVKFNWYVDGVEVHNAKTKPREEQYNSTYRVVSVLTVLHQDWLNGKEYKCKVSNKALPAPIEKTISKAKGQPREPQVCTLPPSREEMTKNQVSLSCAVKGFYPSDIAVEWESNGQPENNYKTTPPVLDSDGSFFLVSKLTVDKSRWQQGNVFSCSVMHEALHNHYTQKSLSLSPGK
light 2: DIQMTQSPSSLSASVGDRVTITCKSSQSLLYTSSQKNYLAWYQQKPGKAPKLLIYWASTRESGVPSRFSGSGSGTDFTLTISSLQPEDFATYYCQQYYAYPWTFGQGTKVEIKGGGGSSGAPRFLTRPKASVVSVGKDATLSCQIVGNPFPQVSWEKDKQPVTAGVRFRLAQDGDLYRLKILDLQLSDSGQYVCRARNAHGEAFACLGLQVDAEA
notes: Format 1: Zal.1 Fv on Ab10.1 Fab (knob) plus Omab Titin/Obscurin-substituted Fab (hole); four chains
B3 registered a 50% inhibitory concentration (IC50) in experiment [4] of 2.37 µg/mL. The half-maximal inhibitory concentration (IC50) in experiment [5] turned out to be 0.25 µg/mL. In experiment [6], this molecule registered a Kd of 7.29 nM, a koff of 0.00103 s⁻¹ and an on-rate (kon) of 142000 M⁻¹ s⁻¹. In experiment [3], this molecule gave a Kd of 2.26 nM, a koff of 0.000124 s⁻¹ and a kon of 54800 M⁻¹ s⁻¹. The “EC50 (read off the curve)” value in experiment [7] was about 2 nM.

B4: EM2 (bispecific antibody, human IgG1, kappa)
heavy 1: not shown
light 1: DIQMTQSPSSLSASVGDRVTITCKSSQSLLYTSSQKNYLAWYQQKPGKAPKLLIYWASTRESGVPSRFSGSGSGTDFTLTISSLQPEDFATYYCQQYYAYPWTFGQGTKVEIKRTVAAPSVFIFPPSDEQLKSGTASVVCLLNNFYPREAKVQWKVDNALQSGNSQESVTEQDSKDSTYSLSSTLTLSKADYEKHKVYACEVTHQGLSSPVTKSFNRGEC
heavy 2: QVQLVESGGGVVQPGRSLRLSCAASGFTFSTYGMHWVRQAPGKGLEWVAVIWDDGSYKYYGDSVKGRFTISRDNSKNTLYLQMNSLRAEDTAVYYCARDGITMVRGVMKDYFDYWGQGTLVTVSSGGGGSGIPPKIECLPIDISIDEGKVLTVASAFTGEPTPEVTWSTGGRKIHSQEQGRFHIENTDDSTTLTIKDVQKQDGGLYTLTLRNEFGSDSATVNIHIRSIDKTHTCPPCPAPELLGGPSVFLFPPKPKDTLMISRTPEVTCVVVDVSHEDPEVKFNWYVDGVEVHNAKTKPREEQYNSTYRVVSVLTVLHQDWLNGKEYKCKVSNKALPAPIEKTISKAKGQPREPQVCTLPPSREEMTKNQVSLSCAVKGFYPSDIAVEWESNGQPENNYKTTPPVLDSDGSFFLVSKLTVDKSRWQQGNVFSCSVMHEALHNHYTQKSLSLSPGK
light 2: DIQLTQSPSSLSASVGDRVTITCRASQDISSALVWYQQKPGKAPKLLIYDASSLESGVPSRFSGSESGTDFTLTISSLQPEDFATYYCQQFNSYPLTFGGGTKVEIKGGGGSSGAPRFLTRPKASVVSVGKDATLSCQIVGNPFPQVSWEKDKQPVTAGVRFRLAQDGDLYRLKILDLQLSDSGQYVCRARNAHGEAFACLGLQVDAEA
notes: Format 2: Omab Fab (knob) plus Zal.1 Titin/Obscurin-substituted Fab (hole); four chains
B4 came in with an equilibrium dissociation constant (Kd) in experiment [3] of 3.04 nM.

The EC50 (read off the curve) is the concentration needed to bring the measured effect to its halfway point. Read a high EC50 (read off the curve) as lower potency in that assay. The Kd is the constant that tells how readily two partners part at equilibrium. One may read the koff as the rate constant with which the complex falls apart. High values mean a short-lived complex, low ones a long-lived complex. The kon is the rate constant with which the complex forms. Low values mean slower complex formation, high ones faster complex formation. As usually defined, the IC50 is the concentration at which inhibition is half-maximal. A lower IC50 goes with greater potency in that assay.
